Reference: the DeepSol protein solubility set

Test: soluble on expression in E. coli; label from the status in PepcDB or PDB records
For “RQGCEARRAHEHLIRLLLEQGKCPEDGWDESTLELFLHELAVMDSNNFLGNCGVGEREGRVASALVARRHYRFIHGIGRSGDISAVQPKAAGSSLLNKITNSLVLNVIKLAGVHSVASCFVVPMATGMSLTLCFLTLRHKRPKAKYIIWPRIDQKSCFKSMVTAGFEPVVIENVLEGDELRTDLKAVEAKIQELGPEHILCLHSTTACFAPRVPDRLEELAVICANYDIPHVVNNAYGLQSSKCMHLIQQGARVGRIDAFVQSLDKNFMVPVGGAIIAGFNEPFIQDISKMYPGRASASPSLDVLITLLSLGCSGYRKLLKERKEMFVYLSTQLKKLAEAHNERLLQTPHNPISLAMTLKTIDGHHDKAVTQLGSMLFTRQVSGARAVPLGNVQTVSGHTFRGFMSHADNYPCAYLNAAAAIGMKMQDVDLFIKRLDKCLNIVRKEQTRA”, the “soluble on expression in E. coli” value was “soluble”.
With “RQIQKKIESGELKAAPEIVEADAECCGQHEICEKESLLAAVSKKIEYYDDEELDRFRGRPSNGYNEEEVEEFREIMYTCKEDEVAGWSRSLQLRGIELPDELKDELFLIVGERRFK” the “soluble on expression in E. coli” value was “not soluble”.
With “RQTRIMDSAQYAEFCESRQLSFSKKASKFRDWLDCSSMEIKPNVVAMEILAYLAYETVAQLVDLALLVRQDMVTKAGDPFSHAISATFIQYHNSAESTAACGVEAHSDAIQPCHIREAIRRYSHRIGPLSPFTNAYRRNGMAFLAC” the “soluble on expression in E. coli” value was “soluble”.
In the case of “RRMVALYDYDPRESSPNVDVEAELTFCTGDIITVFGEIDEDGFYYGELNGQKGLVPSNFLEEV”, the “soluble on expression in E. coli” value is reported as “soluble”.
For “RSFLPPFNEGSFTINVSTLPGISLEESDRMGRMAEEILLSVPEVQTVGRKTGRAELDEHALGVNVSEIEVPFVLKDRSKDEVLADIREKLKVLPGVNIEIGQPISHRIDAMLSGTRANIAIKLFGPDLNRLFAIGNQIKTSVHDVKGVADLNVEQQVERPQLKIVPKREMLAKYGLTPASFAEIVNVMLAGEVVSQVYEGNRSFDLSLKVNDESRESADRIRDLIIDAGGRKIPFAYVADIVSASGPNTINRENVSRKIVVSANVAGRDLRSVVNDIQERIDADITLPEGYHIEYGGQFESEQAASRT”, the “soluble on expression in E. coli” value was “not soluble”.
With “RSFYNLGMDYKYRFHRFSIQGEAALGISGMAFMNQVLYSPLQDIRLMLVHRYYSHDYWAMFAHSFSEGSSVQNENGWYLAASVNPFNRWTFFVSADLFSFPWWRYRISKASKGVDLLFQADYVPSKTVDMYVNYRYKQKERDVTGTQGKVILPTYHHRLRYRLNYLPCSSLSLRTTVDYNHFHSSGKTAGQGYQLTQTAGWKLPWLPLTTELQGSYFHTDDYDSRIYIYEKGLLYSFYTPSFQGEGIRLAIHFRYDMNKHWTAIAKLGQTTYFDRDEIGSGNDLIRGNKKTDVQMQLRLKF” the “soluble on expression in E. coli” value was “not soluble”.
For “RTHIIGIDQTLVDIEAKVDDAFIEKYGLSKGHSLVIDNDKAEMLYNELKDNNMISNEFAGGTIGNTLHNYSVLADDKSTLLGVMSEDIHIGSYSYRYLCNTSSRMDLNYLQPVPGAIGRCFALISEDGERTFAISEGDMNQLRAESIPEKIFKNASALVLTAYLVRCKEGDPMPEATMKAIEYAKKYDVPVVLTMGTKFVVQDDPQYWRDFLNDHVTVVAMNEEEGEALTGATDPLEAANKTLEWVDLVLCTAGPVGLYMAGYTEDSAKRETSLPLLPGTIAEFNQFEFSRPAVKDSCENPIKVFSHISPYMGGPEKIKNTNGAGDGALSALLHDMAANHYHRNNVPNSSKHQHSFLTYSSFSQVCKYSNRVSFEVLAQHSPRLSRGLPEREDSLEEAYWE”, the “soluble on expression in E. coli” value was “soluble”.
With “SAAPPGEYFSVGSQVSCRTCQEQRLQGEVVAFDYQSKMLALKCPSSSGKPNHADILLINLQYVSEVEIINDRTETPRPLASLNVSKLASKARTEKEEKLSQAYAISAGVSLEGQQLFQTIHKTIKDCKWQEKNIVVMEEVVITPPYQVENCKGKEGSALSHVRKIVEKHFRDVESQKILQRSQAQQPQKEAALSS” the “soluble on expression in E. coli” value was “soluble”.
For “SAATMKKAAAEDVNVTFEDQQKINKFARNTSRITELKEEIEVKKKQLQNLEDACDDIMLADDDCLMIPYQIGDVFISHSQEETQEMLEEAKKNLQEEIDALESRVESIQRVLADLKVQLYAKFGSNINLEADES”, the “soluble on expression in E. coli” value was “soluble”.
In the case of “SAEKLFTPLKVGAVTAPNRVFMAPLTRLRSIEPGDIPTPLMGEYYRQRASAGLIISEATQISAQAKGYAGAPGLHSPEQIAAWKKITAGVHAEDGRIAVQLWHTGRISHSSIQPGGQAPVSASALNANTRTSLRDENGNAIRVDTTTPRALELDEIPGIVNDFRQAVANAREAGFDLVELHSAHGYLLHQFLSPSSNQRTDQYGGSVENRARLVLEVVDAVCNEWSADRIGIRVSPIGTFQNVDNGPNEEADALYLIEELAKRGIAYLHMSETDLAGGKPYSEAFRQKVRERFHGVIIGAGAYTAEKAEDLIGKGLIDAVAFGRDYIANPDLVARLQKKAELNPQRPESFYGGGAEGYTDYPSL”, the “soluble on expression in E. coli” value is reported as “soluble”.
For “SAGVRGLRFVERFGDNTASLIKNAILLDQQKVEVFNIRFKSSRDFTIQIKLNAKGNYKKSEVEKYKSQIGVQDNELGDKEEGTLEADLIFTYTPPASNLFSKSNFDKLTKSINFNTNLKLEMVGKDEVMRKILNSSAFTNNLASVNYPNQAVNLLPYVLYSIL”, the “soluble on expression in E. coli” value was “not soluble”.
With “SAGVRGLRLVERYTQDTANIINNVIKLDKQKVEAFSIQYKDPKNFRVQVKINAKGNYKKDTVKTYLSQVGLSDGDLNDTGTLEAEIIYTYMPPAASFFSASKFDKLTRAINFNTNLRIQIIGKDSVMTKLLQQSSFVKQLADQKFQDQSINLLPYVLYSI” the “soluble on expression in E. coli” value was “not soluble”.
With “SAKAVRIGAEGYKLKLDGAVQEIDGRSVVLVDVDSITPLMFGGSMKEKAKLLDAKFLRKYYEENKDFFFLSTREEKKMFVTLQLAREYAELVDDQFLRGFFEKALESAQKAF” the “soluble on expression in E. coli” value was “soluble”.
With “SALSSAASLLGSPLTNDFAVISMSDLLTPLDTIMKRVEAFAKADIVTVIYNPRGSRFPDNIRKAVDIFLRYRNPETAVGIVRNAYRERQSVTITTLSNLNIEDIDMLTTVIIGNSETF” the “soluble on expression in E. coli” value was “not soluble”.
With “SATTVTLEKCGHNKGYKGLDNCRFCPGSQCCVEDGPESIDSIIDMDAVCKRVTTLGLDVSVTISQDAGRYLCDFTYYTSLYQSHGRSAFVHVPPLGKPYNADQLGRALRAIIEEMLDLLEQSEGKINYCHKH” the “soluble on expression in E. coli” value was “soluble”.
With “SDCLIVVDTRAAIRRVNRAALTMLGYDEEQLLGMPVGVIFAWERDKERLRTEGLRCFVESIGSSPAEFTFLSSDERRTPVLLSASPMLGRD” the “soluble on expression in E. coli” value was “not soluble”.
In the case of “SDHGSNEIDRHLTPGASPAYIGINKEKKLLYTANYHTAVLSVFQYSNSGKLALVAQTTHKAESLGPRPEQVDGPHPHFFDETPAGNLVSCDLGNDTVDFYRLENNELKHLAQYKNEAGFGDRHIVFSKDGNYFYVVGELSSQINVVKFNENTWEFEDIATYKTIPEDFTEHNGAAALYITNDGKYIYNSNRGHNSITVFKVNDDHTLSLIQRISTFGDFPRDFNWDETQKYVVAANQNT”, the “soluble on expression in E. coli” value is reported as “soluble”.
In the case of “SDLDLLDLNPRIIAAIKKAKLKSVKEVLHFSGPDLKRLTNLSSPEVWHLLRTASLHLRGSSILTALQLHQQKERFPTQHQRLSLGCPVLDALLRGGLPLDGITELAGRSSAGKTQLALQLCLAVQFPRQHGGLEAGAVYICTEDAFPHKRLQQLMAQQPRLRTDVPGELLQKLRFGSQIFIEHVADVDTLLECVNKKVPVLLSRGMARLVVIDSVAAPFRCEFDSQASAPRARHLQSLGATLRELSSAFQSPVLCINQVTEAMEEQGAAHGPLGFWDERVSPALGITWANQLLVRLLADRLREEEAALGCPARTLRVLSAPHLPPSSCSYTISAEGVRGTPGTQSH”, the “soluble on expression in E. coli” value is reported as “soluble”.
In the case of “SDLQAAGAQAQGAAEPSRGPPLPSARGAPPSPEAGFATADHSGQERETEKAMDRLARGTQSIPNDSPARGEGTHSEEEGFAMDEEDSDGELNTWELSEGTNCPPKEQPGDLFNEDWDSELKADQGNPYDADDIQESISQELKPWVCCAPQGDMIYDPSWHHPPPLIPYYSKMVFETGQFDDAED”, the “soluble on expression in E. coli” value is reported as “soluble”.
For “SDRRTRENPERTFDLVLKVKCHASENEDPEVLWKFPEDFGDQEVLQSVPKFCFPFDVERVSQNQVGQHFTFVLTDMESKQRFGFCRLTSGGRICLCILSYLPWFEVYYKLLNTLADYLAKELEEDLNETLKSLYNHPVPKANTPVNLSVNQELFIASEQVLKDDPSLIPHSCFITPDITGLPTIPESRNLTEYFVAVDVNNMLRLYASMLHERRIIITSSKLSTVSPSHLRL”, the “soluble on expression in E. coli” value was “soluble”.
